Results from the DeepSol protein solubility set.

Assay: soluble on expression in E. coli; label from the status in PepcDB or PDB records

Q: For “MSLSRPLLFALTALSLTAASLAHAADKKAADKPAPSAVSKADKALHDKFLTLDTHLDTPAHFGRPGWDIADHHEVEHDFSQVDLPRMNQGGLDGGFFVVYIGQGELTEKGYTYARDYALHRTIEIREMLAANPDTFEMALTSDDARRIAKAGKKFAFVSMENSWPVGEDLSLVETFYKEGLRMAGPVHFRNNQLADSSTDPKGKIWNGYSPLGLRWLAEANRLGIVIDVSHASDDVVDQSVALSKAPIIASHSGPKAVYDHPRNLDDARLKKIADAGGAICINSIYLTDTTPSPERKAALEALGRAPDMKTATPEAVKAYADKRAAIDKAHPAARGDFDLYMKSMLHVLKVAGPKGVCVGADWDGGGGMDGFEDITDLPKITARLKAEGYSDADIEAIWSGNVLRIVDAAQAYAKSVTKEGHHHHHH”, which “soluble on expression in E. coli” value is on record?
A: The value was “soluble”.

Q: For “MSLSRQCVLAGISRAALYARRKPKRIVQDDELLLRLIDEEYTRHPFYGSRKMVVHLGRCGHSVNRKWAQRLMRSLGLAGMAPGPNTSRAHPQHKVYPYLLRGVAISRPNQVWSTDITYIRLARGFAYLVAVIDWYSRRVLSWRISNSMETVFCVDCLEEALRIHGKPEVFNTDQGSQFTSEAFTSVLKREGVIISMDGRGRALDNIFVERLWRSVKHEDVYLKGYSAMGELLIGLTQYFTFYNGERPHQALKNLTPDVVYQRAQGGGAMIVDKYGAAQSLPMALRSTGTAFDEVRLALLCHVTHADAGLSWRCSEGTERKSRDEAWREGHHHHHH”, which “soluble on expression in E. coli” value is on record?
A: Its value is “not soluble”.

Q: For “MSLSSHKPTVVLADSNDDFRSYLTSCLTEEFTIKSFRDGIEAMAYIKNEYPDLVICDTELQNMDGVELSSRLKTSCETSIIPIILYSSHIDINQHNRRKTSLADTFLQQPFSVTDLKLEMSILIKNTRFLRKSFLQRLFGEEFLETKASEILQDGKHPLISKVTKIILENLNNEKLTIDSIAKELGISRTSLYNKWTQLTGEALNKFILKIRMEKAHEMLKSGKYRVNEVPEKIGMKDMDNFREKYKKYFGKTPVDTIKNEGHHHHHH”, which “soluble on expression in E. coli” value is on record?
A: Its value is “soluble”.

Q: With “MSLSSKRDIEANTDLNSITYIPTFPEPFERDNSHTTASFVSIQIRLLVASVTEENFLDTEHQIYYLLQRGSFSVYISYWKLLIQLFVNEFEAQQQKRDLNLPFRFDFSNLVHRLLYNLAQELITRTPDTIEKVKELALPLSGKYPIRPLFLSFLNKDNESDSAIIEALNPEVHPIFTTLKDLHRTNMSVSNITQNLFAVENKPNFLTMLSEFLKPLQGETLNDWIALILSEILAPGSQTSNQPSQPWIVQVPNVDVREVIEATEMGTKVNGIIKSLGTNNVNWNRVFNLMSTKFFLNKPVNATLSSLNYLFCILNSGPLVDQFFACDWSLYFKLRLSFLMYQWNYNSECLDLSSLPNIKKINKSIPLTKKSQLSLISVGKLNIELFLSRDEISKNPLFSSFHASFSEAYNNVPEYLAAVLISESKYFSLLVDNKSIIDELLISLVIKTYENNVIAFKELLKLVSKQKVIEVSRGIIASQNAQTINLVQALHDLGILDEVFEKLPIRDSLKLSPTAMHLGYLKFSEYIERNITLKTFVPTLDFIEAQTNIDELDEGHHHHHH” as the sequence, how does the “soluble on expression in E. coli” value read?
A: The value was “not soluble”.

Q: For “MSLSSTSHERLEVEPIDESSILFADDDHYTSDTVCLVTGGGSGIGRATALAMAANGVTAVATDIDADGLAEVADTAADLDLDGAVETVAGDLANDADIEAIVETAASHGTVRYLANIAGLQHIDAIEDFPMEKYDQMHDVMLRAPLALSKRVIPHIRGTDDGVGAIGNMASVHGHYVTSDKVAYNVSKFGLRGLTQSIAAEGGDGLRGFSISTGYVKTPLVVDQIPDTAEQRGISVDEVIDDVMLGQARIKEMMDPIDVANLFVFGFSRHANHLNGGDLLFDGGMTKTYEGHHHHHH”, which “soluble on expression in E. coli” value is on record?
A: The value was “not soluble”.

Q: For “MSLSTCPAACHCPLEAPKCAPGVGLVRDGCGCCKVCAKQLNEDCSKTQPCDHTKGLECNFGASSTALKGICRAQSEGRPCEYNSRIYQNGESFQPNCKHQCTCIDGAVGCIPLCPQELSLPNLGCPNPRLVKVTGQCCEEWVCDEDSIKDPMEEGHHHHHH”, which “soluble on expression in E. coli” value is on record?
A: The value was “not soluble”.

Q: For “MSLSTGTMTLHRRLQVEYGLYQDRGRRPTMEDAHTVVSSLPIPQLEEQDEGNTTVSLFAIMDGHCGDSASYYSAAQLASKVSECWPCCMTTSSIVSSLHNAHILMDAQFLEIARSSNILAGCTCLSTVIVTEAHRIRIFTANLGDSRAILCRHGAFSAWLKFSPPSAAAEANANRLNLISFFPGSRLVIPLSLDQKPNISPDRERIEAAGAFTYPSLIKYKDKIAIRGPHRIFPGGLAVPRAIGDLPYKDMTYLNSLGVSAPLVSSDPVISIYDLTEQDEFILQACDGLWDVISSKEAAIFASVMHYIHQLARMPHKAFKKLRRPLKQILFKMGVTSYYSPTSVAVAEALCNHAKLRGSQDNVTVSVIFPEFIKSEGHHHHHH”, which “soluble on expression in E. coli” value is on record?
A: Its value is “not soluble”.

Q: With “MSLSVAVSPLAPKSYPDMPALRGVRMATAAAGIKYKNRTDVLLMVFDKPASVAGVFTKSKCPSAPVDFCRANLGSGAARAVVVNSGNANAFTGVKGKAATELTAKSAAAAVGCSEGEIFLASTGVIGEPLDASKFAGVLGDMNVRAEADFWQEAAKAIMTTDTYPKVSTRTAEIGGVIVTINGISKGAGMIAPDMATMLSFVVTDADIEPAALQSLLSAGVGPTFNSVTVDSDTSTSDTLMLFATGAAAEDGQVKVTSADDERLSSFRAALNDLLKDLALQVVRDGEGARKMVEVTVTGAENDAAAKKIALSIANSPLVKTAVAGEDANWGRVVMAVGKSGEMADRDRLAIWFGGVRVAVNGERDPDYSEAETTAVMRLEDITVKVDIGLGQGTATVWTCDLTKEYVAINGDYRSEGHHHHHH” as the sequence, how does the “soluble on expression in E. coli” value read?
A: The value was “not soluble”.

Q: Which “soluble on expression in E. coli” value does the source give for “MSLSVEFNKQQVRPRSEISPQDCWDITPLYLNRKAWKADLDSFGLKTDGSPTWPALQATQYQLDNSESLLSLLTTLFSIERKLNKLYVYAHLTHDQDITNQEGIADLKSITHLHTLFAEETSWVQPALTSLSESLIAQHLSAPCLAPYRFYLEKIFRLSIHTGTPGEEKILASAFTPLEVASKAFSSLSDSEIPFGQATDSEGNSHPLSHALASLYMQSTDRELRKTSYLAQCERYHSYRHTFANLLNGKIQAHVFYAKNKRYNSCLQAALYHNNIPTTVYTNLIDIVKKNSSLITKYFSIKQRCLNLKDFHFYDVYAPLSQSKEKKYTFQEAVDLIYTSLSPLGTEYIDTLKQGLTTQGWVDKYENLNKRSGAYSSGCYDSHPYVLLNYTGTLYDVSVIAHEGGHSMHSYFSRKHQPFHDAQYPIFLAEIASTLNEMLLMDSMLKESDSKEEKITILTRCLDTIFSTLFRQVLFASFEYDIHHAAEHGVPLTEEYLSSTYKNLQNEFYGEIITFDVLSNIEWARIPHFYYNFYVYQYATGIIAALCFLEKILNNEDNALNSYLNFLKSGGSDFPLEILKKSGLDMGTVEPIQKAFCFIEKKIQELSSLIEGHHHHHH” here?
A: The value was “soluble”.

Q: Which “soluble on expression in E. coli” value does the source give for “MSLSVKILALDTATERCSVALLVGNTVYSRSEIAPRDHTKKVLPMVDEVLKEAGVTLQELDALAFGRGPGSFTGVRIGIGIAQGLAFGADLPMIGISTLAAMAQAAYRLQGLTHVASAIDARMEEVYWGRYVRQEDGSWQVAEAECVIAPALLAQTLTQDDLTQDEQIWATAGTGWDAYPALADLPLQLQTSEVLYPDAQDMAYLAQFELAQGNKVSVEQASPVYLRDTVAWKKLPGREEGHHHHHH” here?
A: Its value is “soluble”.

Q: With “MSLSVKIVIKPNTYFDSVSLMSISTRANKLDGVEQAFVAMATEMNKGVLKNLGLLTPELEQAKNGDLMIVINGKSGADNEQLLVEIEELFNTKAQSGSHEARYATIGSAKKHIPESNLAVISVNGLFAAREARQALQNDLNVMLFSDNVSVEDELALKQLAHEKGLLMMGPDCGTAIINGAALCFGNAVRRGNIGIVGASGTGSQELSVRIHEFGGGVSQLIGTGGRDLSEKIGGLMMLDAIGMLENDPQTEIIALISKPPAPAVARKVLERARACRKPVVVCFLDRGETPVDEQGLQFARGTKEAALKAVMLSGVKQENLDLHTLNQPLIADVRARLQPQQKYIRGLFCGGTLCDETMFAVMEKHGDVYSNIQPDPEFRLKDINRSIKHTFLDFGDDDFTNGKPHPMIDPTNRISRLIEEARDPEVAVIVMDFVLGFGSHEDPVGSTIETIKEAKAIAAAEGRELIILAYVLGTDLDTPSLEQQSQMLLDAGVILASSSTNTGLLAREFICKGEEGHHHHHH” as the sequence, how does the “soluble on expression in E. coli” value read?
A: The value was “soluble”.

Q: For “MSLSVLKICTKDQKGLIYRISDVIFKYHINIVKNDEFVGEGMFFFRALLEGEFDKEAFIGTLEAMLGQEALIELCEKRKKDIVVFATKESHCLGDLLIKHYSNELEANIKAVISNHNSLKDLVEKFEIPYHFISAENLDRKEQENQILKCLEQYKFDYLVLAKYMRILSPDFVRHFEGKIINIHHSFLPAFIGANPYKQAFERGVKIIGATAHFVNNNLDEGPIITQAVSPVNHEFTWQDMQQAGRNIEKDVLSKALDLAFEDRIFIHNNKTIIFEGHHHHHH”, which “soluble on expression in E. coli” value is on record?
A: Its value is “soluble”.

Q: Which “soluble on expression in E. coli” value does the source give for “MSLSVPQKRYFLGLHIGHDRAITVADDTNLVFHTAVERLDRKKHSDSFHLPVEEIKTVLLYLNVDVSELRGVCISYLAVDASRVSMTLEASFRDAFPDFEGRFSALDHHLAHALGAKVCSGFDEALVVVADGAGDQRLWGSQSETIYHVSSDTFYLLDERVQSPPLTYINRPEFYDPSYFRPDDQERQISLGLKYEQITYLCGFGPGQAGQTMALAAFGKPLFDYRNMLPKDLSFSLRYTDFLREFEALARADGLSLIQFAKSRRSDIAATYQAYLSEALSAIVKDALDRFPSKRVCFSGGLFLNCLSNRRLHDEHPDRELFFFPACNDEGQSIGTAAYAYWQEHSRLPREGHHHHHH” here?
A: The value was “not soluble”.

Q: With “MSLSVVERIFNHSESRPDCIAVYENDRTISYENLASDIKKTAAKLVSLGVTSEDAVLVRSNNSYSFILLYFSIHYVGAKFVNVAPDSDVSYVSFIEDKVNPKLFIEKSQDFIRNIDSYTFDNIFPPQARGIADIMFTSGTTGEPKGVLLSHKSLVLATEHIISHVKNTNEDVELLLMPLSHSFAMARMRTSLFAGGAIVVGCSFKQLKSVFKAIEFYKVTGLGLVPSAWSYITLMTKDLIRKYSEQLNFIEFGSAHFPFEDKKQVAEWFPNTNVVMHYGLTEVSRATFIDFHNDDINAVGHRYRGADFKIIDNKGAEVIEGEEGEIVFKAPWMLDGYFENSQLTSDCFVEGYFKTGDLGRVVGDYLFLTGRLKEIINVGGKKVSPDQVEKVLSEALGVQECACAALSDANMGEVVQAYIVVKSGWDCENVISNIKETINGQLPMHMRPKKYSIVSALPKTVSGKVQRYKLSSEGHHHHHH” as the sequence, how does the “soluble on expression in E. coli” value read?
A: Its value is “soluble”.

Q: With “MSLSVYEKVNALDKRAIEELFLSEDILMENAAMALERAVLQNASLGAKVIILCGSGDNGGDGYALARRLVGRFRVLVFEMKLTKSPMCQLQKERAKKAGVVIKTYEENALNQNLECDVLIDCVIGSHFKGKLEPFLNFESLSQKARFKIACDIPSGIDSKGRVDKRAFKADLTISMGAIKSCLLSDRAKDYVGELKVGHLGVFNPIYEIPTDTFLLEKSDLKLPLRDKKNAHKGDYGHAHVLLGKHSGAGLLSALSALSFGSGVVSVQALECEITSNNKPLELVFCENFPNLLSAFALGMGLENIPKDFNRWLELAPCVLDAGVFYHKEILQALEKEAVLTPHPKEFLSLLNLVGINISMLELLDNKLEIARDFSQKYPKVVLLLKGANTLIAHQGQVFINILGSVALAKAGSGDVLAGLILSLLSQNYTPLDAAINASLAHALASLEFKNNYALTPLDLIEKIKQLEGHHHHHH” as the sequence, how does the “soluble on expression in E. coli” value read?
A: Its value is “soluble”.
